Experimental findings from the supplement of paper PMC12042874 are described below.

This data set can be described thus: amyloid nucleation score (Sup35N fusion, yeast selection) (log enrichment); library NNK2; higher = more nucleation; inactive = no reads after selection. The method, boiled down:
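Yeast lacking psi expressed peptides of 20 random codons fused to Sup35N, received 100 μM copper sulfate for 24 hours, and were then grown for 7 days at 30°C on medium lacking adenine and uracil. Illumina sequencing of input and output plasmid inserts provided the reads. Nucleation scores are DiMSum log enrichments of output over input, centred on the mode of non-aggregating sequences. Any sequence with under 100 input reads was excluded.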

± gives the uncertainty stated by the source.

Turning to RLEPYCILSRV, the amyloid nucleation score was -1.75 ± 0.48. Under SLWTYRARTKGCHYVHSVLM stands 0.164 ± 1.1; under NVITRGM, 0.899 ± 0.38. The same measure for PFPSPSDSGTVAA: 0.737 ± 0.54; for GWIVSLFVV: 0.769 ± 0.46. SCAIELLVQNNSEHLRLITI displayed an amyloid nucleation score of -0.266 ± 0.3. The same measure for SWFSSNFFFY: 5.27 ± 0.058. Under NGNRSHLELRCGWMSWCDRA stands -0.318 ± 0.55; under RRSFTTADTCLLIS, -0.695 ± 0.54; under LISTELGPTSFYLHKSLSSR, -1.02 ± 0.62. In the case of LFHCLSELLVGSSNSRFVCE, the amyloid nucleation score was 0.456 ± 0.42.

The substance KCIAGMSWCEH returned an amyloid nucleation score of 0.252 ± 0.2.

In turn, SGEARQH registered an amyloid nucleation score of -0.691 ± 0.49. Under PATVVILS stands 1.23 ± 0.45; under ALRLLSFKVMVVEDYLTMTL, 2.91 ± 0.098; under SYTMVTLPSPSL, -0.224 ± 0.23. Under NNSYTGPVSCNHVAGCGTGH stands -0.387 ± 1.1; under DMDRCLGY, 0.812 ± 0.2.

On to IKKIRYPRFLVVLN, for which the amyloid nucleation score entry is “inactive”. IYGAMCLCP: the amyloid nucleation score was -0.005 ± 0.63. Substance QRYWSAYDTRNLIGE gave an amyloid nucleation score of 1.41 ± 0.47. The same measure for LGQVTDLSILCSSDQSLMVC: -0.075 ± 0.26. The same measure for HAFLG: 0.53 ± 0.5. On to YLHLSQTQWLGLIFNRRSFD, for which the amyloid nucleation score was 3.62 ± 0.068. The same measure for CCNMTHYDFSGYNDGAMQDC: -0.424 ± 0.76; for RDQFTISETRNAVDMDWKSK: 0.007 ± 1.1.

Take WTWFESVLRPCKGLGRAPHI: the amyloid nucleation score is -0.172 ± 0.8. Under MMAIFWGFSVQRRRGSGIDL stands 2.74 ± 0.18; under WTWEKWESPHEDGSRRPIVG, 1.55 ± 0.18; under AYRVWRRGVEMMRNPFLPVA, 3.6 ± 0.064. The same measure for PHLEGVSCVVVKHQLRS: 0.82 ± 0.17. Under DVGSCVRGYTGQSKNLWTYG stands 0.028 ± 0.79.

In the case of IPFQEWNSMFIKLSELTVES, the amyloid nucleation score was found to be 3.97 ± 0.058.

Turning to RIIGTDLSRLWWIKFKVKRG, the amyloid nucleation score was -0.091 ± 0.65. Under TLVHSKF stands 3.01 ± 0.089. The same measure for SNSHNSRSIAY: 0.475 ± 0.57; for YPSCKGSMPVFYSFPGGENA: 0.524 ± 0.5; for TFRIERSVGWYCNRASYSCK: 1.02 ± 0.21. The same measure for MELMNMV: -0.127 ± 0.65; for RVNFSGIDVVRLFHYCFYMK: -1.51 ± 0.76. As to KCTTVIYYMCIGLRH, the amyloid nucleation score came out at 4.98 ± 0.041. Under KLPMRNFRDVCEADLHPVK stands 1.11 ± 0.61. The same measure for NSVFFY: -1.63 ± 1.1.

The substance NFPRRSRVLKYCITLSSNHS had an amyloid nucleation score of -0.158 ± 0.5.

In the case of RTSKGAA, the amyloid nucleation score was found to be 1.21 ± 0.45. The same measure for STWDGWGFSWISFL: -0.635 ± 1; for FVLTCRSSLYAVRDRLK: 1.35 ± 0.43. Under AFNARWTEIDVPWRASPAHV stands 0.657 ± 0.37.

RMLSLGNYGSNAYICCIVCY yielded an amyloid nucleation score of 1.92 ± 0.36. Under MLIPRVFISHVDICGYISCS stands 4.626 ± 0.036; under NLMCTACILDQWRHCKLVWN, 4.15 ± 0.091; under ARNTTGGSYV, 0.504 ± 0.74. The same measure for KDNSTPRIGASDEIDVVLAF: 0.078 ± 0.77; for SNHLIVMISVFYFKSVRI: “inactive”. Under SCTPGLHQGCRCSVLLWEHR stands 0.681 ± 0.47; under TDLIPRQKKITLWFIS, 0.159 ± 0.53. ARYMSQVRRTSSHTLNEKI yielded an amyloid nucleation score of 0.545 ± 0.51.

Substance GILNRTRPFR showed an amyloid nucleation score of -0.595 ± 0.28. Under CKSLLVKC stands “inactive”; under NVFVCPAFQRTWVWMAVMSW, “inactive”; under CTMWVDVCLSCDHMRYDNGG, 5.96 ± 0.093. The same measure for LFRWM: 3.92 ± 0.06.

Regarding KLSNLSHDSYMLENALFALT, the amyloid nucleation score amounted to 2.52 ± 0.063.

VFRGAVSWTVLIGDNKVVLY came in with an amyloid nucleation score of 0.674 ± 0.45.

Substance EEMMFPFAFVFFICSFRNRL returned an amyloid nucleation score of 2.9 ± 0.065. SLWYFCRPIGGI gave an amyloid nucleation score of -0.391 ± 0.29. Under MFSPQLSALMILVSYMHDGW stands 2.04 ± 0.087. The same measure for QFSLSFSDFCKSLW: 6.287 ± 0.03. NVVSEEIMVCIVVSDLKRFR came in with an amyloid nucleation score of 0.619 ± 0.29. The same measure for RFEWVPGLSKGN: “inactive”; for ALFYLSCQPSTGALESRYLG: 1.73 ± 0.29; for EVVNWSR: -0.367 ± 0.35. The same measure for AANWGNRGYMVCEHCVIDV: -0.054 ± 0.46. In turn, QGIRALRLYKFLTTSLILLI yielded an amyloid nucleation score of -1.42 ± 1.1. The same measure for FYYSDDEFKCTVEIPVIYLI: -1.07 ± 0.5; for LKIFLLIVVGDDFMKSKYCP: -0.612 ± 0.64. RSTISYDSSAQYCGGWLGLW showed an amyloid nucleation score of -0.717 ± 1.

On to SCDRIRMCCSWCQV, for which the amyloid nucleation score came to 3.54 ± 0.049. The same measure for IRKRCGINGMYRWIWVTWYL: -1.12 ± 0.33; for VWPGLIGHRSFFINLHVGKG: 7.38 ± 0.082. Under FHISYDTSS stands -0.35 ± 1.1; under RLDLYRNMAMVVWQSIDEPP, 0.574 ± 0.41; under SSFLDRAIGGEAGRCSVWMK, 0.856 ± 0.24. The same measure for YYSISGISFWFSK: 8.381 ± 0.06. YLNVNNSQDNESAYVFDKVV: the amyloid nucleation score is 0.058 ± 0.74. In turn, ECSRSINYLRLVLNLE registered an amyloid nucleation score of 0.708 ± 0.34.

In turn, ECVLMTGTMWSTSSALW registered an amyloid nucleation score of 0.877 ± 0.53. Under LTGMVTCATI stands 0.53 ± 0.36. Under ACGPQPETLSGLMSRGLLRR stands 0.619 ± 0.64; under NREIMMD, -0.184 ± 1.1. The same measure for SKNLE: -2.09 ± 0.48; for TSDWRLYFRLTDVVIGLW: 1.86 ± 0.083; for CRYYSNPAPSPRLVN: “inactive”. In turn, STSSSLAR yielded an amyloid nucleation score of 0.867 ± 0.22.

Turning to NYFGKLLWLSLHDTCIVTF, the amyloid nucleation score result is “inactive”. The same measure for HRPNCFRWPGLRVLFWYRK: -0.326 ± 0.45; for KGIYIFRHLCGMDVNMGPMD: -0.764 ± 0.64; for YVCFQFFDTC: 8.406 ± 0.038. The same measure for CFAIFWLFECTTSSMKMTRV: 0.053 ± 1.1; for RKPPMPRFQLDSNRQKG: 0.313 ± 0.64; for EFCIPKNLRSW: 0.182 ± 0.22. Take GMNAAGEVWVRGWTSGCMVY: the amyloid nucleation score was 0.225 ± 0.5.

ISRWTSIVFKRLNGRDKEMK showed an amyloid nucleation score of 4.29 ± 0.088. The same measure for LYLGMDYWWDV: -0.164 ± 0.33; for GDIRLLSRNVLGYIGALLDL: 0.179 ± 0.39; for NWSHELQIQLCAMAYREWSE: 5.777 ± 0.038. In the case of DCWWYRLDSMYDLTYLGIGR, the amyloid nucleation score was -1.03 ± 0.63. The same measure for CLFYRCCMHDPRSLLEKGRP: 5.835 ± 0.037; for PKSYWLSISRLKPVSQYYLR: 1.21 ± 0.24; for YKVNWG: 0.854 ± 0.47. FIRQKGYTVFLVCGNYVWMT gave an amyloid nucleation score of 5.979 ± 0.056. Under YCVSNWASNFSLLLYNGNMY stands “inactive”; under DGFYCL, 0.019 ± 1.1; under GNVSYHSCVW, 0.449 ± 0.36. The same measure for WYRLLGFAMD: -0.603 ± 1.1.

For IFAHSPLYMCGYADVYVHPT, the amyloid nucleation score result was “inactive”. LKARIACADYIRSGIILLCS registered an amyloid nucleation score of 2.2 ± 0.08.

NVKICFCSVMSSTCRYNRT came in with an amyloid nucleation score of 7.878 ± 0.064. The same measure for WLICQSIRLLAKNFLLSDRV: 0.019 ± 1.1; for NMCQPMCVIVDWIIFISCVG: 2.49 ± 0.063; for GDLRYQSPSLCFCFMSFGDQ: 5.971 ± 0.024. Under YGRRGELN stands -0.422 ± 1.1.

Consider VNGTTGRSCNKNLDVFNSSI, for which the amyloid nucleation score is -0.35 ± 1.1. Regarding NLIESWTVYCIGLGG, the amyloid nucleation score entry was “inactive”.

Substance RIYFGQIRGDW displayed an amyloid nucleation score of 4.04 ± 0.12. The same measure for ENFGVVMRWGYIRLLLQANW: “inactive”; for STVKVLVPEVHWSKATPRNY: 2.99 ± 0.14.

With MDQNG, the amyloid nucleation score is -0.427 ± 0.79. Under VSNKDVLSQDMAKLIWW stands 0.81 ± 0.22; under MIDRE, 0.83 ± 0.2; under RLTLVNRAGCIVCNGQGCLQ, 9.245 ± 0.069. Under SCKWVRGVSRMPNHWN stands -0.618 ± 1.1. The same measure for WDIFICLVL: -0.063 ± 0.74.

Regarding SLLIFMSFYYWLQVSYRPPR, the amyloid nucleation score is -1.3 ± 1.1. Under ENSLVYI stands “inactive”; under MDYTFSLQTMCGVWYCYWGR, 1.31 ± 0.31.

As for YVSDYG, the amyloid nucleation score came to 0.199 ± 0.8. Under CHQCVNERFESKREPVPDHS stands 0.421 ± 0.45.

As for YYEYGL, the amyloid nucleation score is -0.298 ± 0.4. Under GYLSDMINFVSYCGRLSWSV stands “inactive”. Under SWMIYLCRVGTITRMQDWLW stands -0.445 ± 0.35; under PIYCINRFDNWYLL, 5.94 ± 0.041.
